Patent US20080207488A1, “Method for Detecting Peptides Comprising a Cross-B Structure” (priority 2005, published 2008)

How the values were obtained:
tPA [1] = molecular target: T1, tPA (Homo sapiens, UniProt P00750); assay: tPA binding assay with immobilized biopharmaceuticals in an ELISA; conditions: therapeutic coated 1:10; one-site binding fit
T1 construct: purchased Boehringer-Ingelheim (Actilyse, Alteplase)
Protocol: Nunc Immobilizer plates (Nalge Nunc, #436013, Rochester, N.Y., USA) were coated with 50 μL containing 5 μg/mL of sample protein (unless indicated otherwise) in 100 mM NaHCO3, pH 9.6, 0.05% m/v NaN3 for 1 hour at room temperature. Plates were washed twice with Tris buffered saline pH 7.2 containing 0.1% Tween20 (TBST) and blocked with PBS containing 1% Tween20 for 1 hour at room temperature. […] Plates were washed five times with TBST and incubated with peroxidase labeled anti-mouse immunoglobulins (RAMPO; DAKOCytomation, Glostrup, Denmark) diluted 1:3000 in PBST for 30 minutes at room temperature. Plates were washed five times with PBS 0.1% Tween20, and stained with 100 μL/well of tetramethyl-benzidine (TMB) substrate (Biosource Europe, Nivelles, Belgium). The reaction was terminated with 50 μL/well of 2 M H2SO4 and substrate conversion was read at 450 nm on a Spectramax340 microplate reader. Curves were fitted with a one-site binding model (GraphPad Prism version 4.02 for Windows, Graphpad Software, CA, USA) from which Kd and Bmax were determined.
Protein therapeutics were obtained from the local hospital pharmacy and analyzed within the expiry limits as stated by the manufacturers.

tPA [2] = molecular target: T1, tPA; assay: Biacore surface plasmon resonance, binding to immobilized tPA; conditions: Hb-AGE 32, amyloid γ-globulins 62.5, albumin-AGE 3.9 μg ml^−1
Protocol: Binding of cross-β structure conformation containing peptides/proteins was studied using surface plasmon resonance technology with a Biacore 2000 apparatus (Biacore AB, Uppsala, Sweden). A standardized amine coupling procedure was used to couple proteins with F domains to a CM5 chip (Biacore AB, Uppsala, Sweden). First, the dextran surface of the chips was activated by a 35 μl injection with a 1:1 mixture of 0.1 M N-hydroxysuccinimide (NHS) and 0.4 M N-ethyl-N′-(dimethylaminopropyl)carbodiimide (EDC) at a flow rate of 5 μl min.^−1. Then, the proteins were covalently coupled to the activated dextran surface. Remaining activated groups in each of the four flow channels were blocked by injection of 35 μl of 1 M ethanolamine hydrochloride pH 8.5. EDC, NHS and ethanolamine hydrochloride were obtained from Biacore. On one chip, on channels 1 to 4, buffer (reference channel), the soluble extracellular part of receptor for advanced glycation endproducts (sRAGE), tPA and K2P-tPA were immobilized. […] Binding of albumin-AGE was determined with a solution of 3.9 μg ml^−1 albumin-AGE in running buffer. albumin-AGE was filtered on a Millex-GV 0.22 μm filter unit (Millipore). […] Binding of Hb-AGE was also tested after centrifugation for 10 min. at 16,000*g alternative to filtration. tPA activation before and after filtration was assessed with a Plg-activation assay. […]

platelets = assay: Platelet aggregation assay; format: cell-based, human; conditions: 512-fold diluted plasma spiked with 250 μg/ml BSA-AGE, tenfold diluted
Protocol: In a next series of experiments, diluted plasma was enriched with a 250 μg/ml BSA-AGE spike and subsequently added to tPA F-biotin-Streptavidin-Sepharose. […] Results are compared to platelet activating properties of the spiked plasma before depletion of BSA-AGE.
Freshly drawn human aspirin free blood was mixed gently with citrate buffer to avoid coagulation. Blood was spinned for 15′ at 150*g at 20° C. and supernatant was collected; platelet rich plasma (PRP) with an adjusted final platelet number of 200,000 platelets/μl. Platelets were kept at 37° C. for at least 30′, before use in the assays, to ensure that they were in the resting state. For the aggregometric assays, 270 μl platelet solution was added to a glass tube and prewarmed to 37° C. A stirring magnet was added and rotation was set to 900 rpm, and the apparatus (Whole-blood aggregometer, Chrono-log, Havertown, Pa., USA) was blanked. A final volume of 30 μl of tester solution was added, containing the agonist of interest (buffer, control, diluted plasma with BSA-AGE, before and after contacting tPA F-biotin-Streptavidin-Sepharose), prediluted in HEPES-Tyrode buffer pH 7.2. Aggregation was followed in time by measuring the absorbance of the solution, that will decrease in time upon platelet aggregation. […] Aggregation was recorded for 15′ and expressed as the percentage of the transmitted light (0-100%).

[3] = ThT fluorescence of LPS-protein mixtures; format: physicochemical; conditions: for ThT fluorescence enhancement vs protein in buffer only: 1 mg ml^−1 protein
Protocol: Fluorescence of ThT-protein/peptide adducts was measured as follows. […] Fluorescence was measured at 485 nm upon excitation at 435 nm. Background signals from buffer, buffer with ThT and protein/peptide solution without ThT were subtracted from corresponding measurements with protein solution incubated with ThT. […] Fluorescence was measured in triplicate on a Hitachi F-4500 fluorescence spectrophotometer (Ltd., Tokyo, Japan).
Subsequently, the ability to enhance ThT fluorescence was determined with 40× diluted solution, as described above. […]

T1 sequence (P00750 36-562): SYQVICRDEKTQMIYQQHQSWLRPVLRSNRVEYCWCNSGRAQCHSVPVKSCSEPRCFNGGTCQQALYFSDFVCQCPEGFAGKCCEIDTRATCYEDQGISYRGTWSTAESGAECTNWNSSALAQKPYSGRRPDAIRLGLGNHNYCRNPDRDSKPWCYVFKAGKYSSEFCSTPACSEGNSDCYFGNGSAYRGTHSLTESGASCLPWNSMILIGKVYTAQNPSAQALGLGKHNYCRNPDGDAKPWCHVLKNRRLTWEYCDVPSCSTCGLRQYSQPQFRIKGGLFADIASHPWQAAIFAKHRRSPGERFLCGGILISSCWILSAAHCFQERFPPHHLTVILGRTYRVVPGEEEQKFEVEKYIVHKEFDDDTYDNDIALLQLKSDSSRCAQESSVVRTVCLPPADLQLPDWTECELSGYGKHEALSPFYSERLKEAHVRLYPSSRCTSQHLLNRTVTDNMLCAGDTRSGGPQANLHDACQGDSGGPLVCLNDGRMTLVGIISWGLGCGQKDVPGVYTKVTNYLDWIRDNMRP

With “Abciximab: abciximab, an inhibitor of blood platelet aggregation (ReoPro, Centocor)” the “tPA Binding Bmax (OD450 nm)” value (tPA [1]) was 0.5329 OD450 nm.
For “albumin-AGE: advanced glycation end-product modified bovine serum albumin”, the “binding to immobilized tPA” value (tPA [2]) was “bind” and the platelet aggregation (platelets) was “Platelets readily aggregate”.
In the case of lysozyme: chicken egg-white lysozyme, the ThT fluorescence enhancement ([3]; 200 μg ml^−1 LPS (FIG. 4D, E)) is reported as “approximately 5 times”, the ThT fluorescence enhancement ([3]; 400 μg ml^−1 LPS (FIG. 4D, E)) is reported as about 11 times and the ThT fluorescence enhancement ([3]; 600 μg ml^−1 LPS (FIG. 4D, E)) is reported as about 18 times. The ThT fluorescence enhancement ([3]; 1 mg ml^−1 protein exposed to 600 μg ml^−1 LPS (FIG. 4C)) was “approximately 10 times”, the “ThT fluorescence enhancement vs protein in buffer only” value ([3]; 10 μg ml^−1 LPS (FIG. 4B)) was 1.1 times and the “ThT fluorescence enhancement vs protein in buffer only” value ([3]; 25 μg ml^−1 LPS (FIG. 4B)) was 1.3 times. The “ThT fluorescence enhancement vs protein in buffer only” value ([3]; 100 μg ml^−1 LPS (FIG. 4B)) was 1.6 times, the “ThT fluorescence enhancement vs protein in buffer only” value ([3]; 200 μg ml^−1 LPS (FIG. 4B)) was 2.3 times and the “ThT fluorescence enhancement vs protein in buffer only” value ([3]; 600 μg ml^−1 LPS (FIG. 4B)) was 5.7 times. The “ThT fluorescence enhancement vs protein in buffer only” value ([3]; 1200 μg ml^−1 LPS (FIG. 4B)) was 13.1 times.
